Measured values as given in US12123042.

Test system: cytochrome C

S. rebaudiana CPR1 (cytochrome P450 reductase), sequence (chain, as listed by the source): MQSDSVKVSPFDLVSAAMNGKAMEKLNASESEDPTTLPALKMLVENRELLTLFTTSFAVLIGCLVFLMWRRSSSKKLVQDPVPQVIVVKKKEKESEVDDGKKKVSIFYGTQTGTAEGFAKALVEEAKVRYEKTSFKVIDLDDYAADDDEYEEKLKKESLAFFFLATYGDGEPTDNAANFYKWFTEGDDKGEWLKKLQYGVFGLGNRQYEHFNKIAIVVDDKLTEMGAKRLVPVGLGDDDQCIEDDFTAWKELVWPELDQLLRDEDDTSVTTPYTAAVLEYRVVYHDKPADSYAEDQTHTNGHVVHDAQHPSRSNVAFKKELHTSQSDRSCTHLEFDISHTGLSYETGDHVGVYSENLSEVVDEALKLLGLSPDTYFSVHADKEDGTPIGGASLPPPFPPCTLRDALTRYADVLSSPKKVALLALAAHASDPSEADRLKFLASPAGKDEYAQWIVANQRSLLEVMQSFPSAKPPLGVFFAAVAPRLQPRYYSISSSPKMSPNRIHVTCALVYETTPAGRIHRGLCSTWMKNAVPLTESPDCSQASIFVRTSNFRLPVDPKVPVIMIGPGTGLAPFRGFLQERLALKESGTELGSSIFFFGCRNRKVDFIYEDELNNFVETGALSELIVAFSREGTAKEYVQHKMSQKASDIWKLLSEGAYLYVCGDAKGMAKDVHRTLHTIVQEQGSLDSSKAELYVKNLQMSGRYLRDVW

S. rebaudiana CPR1 (cytochrome P450 reductase)
CPR activity (cytochrome C reductase assay, increase in absorbance at 550 nm, units/mg microsomal protein): 7- and 14-fold higher activity, respectively, compared to the negative control
